Data taken from PMC6983393.

Biological target: K. lactis 80S ribosome (40S and 60S subunits) (K. lactis)
Assay: co-sedimentation; 30 pmol eIF5B, 15 pmol K. lactis 80S ribosomes, 0.1 mM GDPNP in 30 uL of 20 mM Hepes pH 7.4, 50 mM KCl, 2 mM DTT, 2.5 mM Mg-acetate, 30 C for 5 min; pelleted through a 1 M sucrose cushion (80,000 rpm, 3 h, 4 C); pellets on SDS/PAGE, Coomassie, bands quantified and normalised to WT

| fold reduction in ribosomal binding against WT [fold] | Substance |
| --- | --- |
| 2 | eIF5B-DIII-h12-Loop mutant (K. lactis eIF5B 361-967, residues 835-839 in S. cerevisiae numbering / 800-804 in K. lactis substituted to alanine) (domain or fragment) |
| 2 | eIF5B-YxA mutant (K. lactis eIF5B 361-967, Tyr837 in S. cerevisiae numbering / Tyr802 in K. lactis substituted to alanine) (domain or fragment) |
